Molecular target: T1, ZIKV envelope (E) protein, strain H/PF/2013, on purified virus particles (Zika virus (ZIKV-H/PF/2013))
T1 construct: envelope (E) protein of Zika virus strain H/PF/2013, cut product of the viral polyprotein, membrane-anchored on the virus particle; the entire E protein with its transmembrane regions was fitted; Stood on whole virus particles (catSP after 37 °C with Fab C10) together with the M protein and the lipid membrane
Test: cryoEM micrographs and 2D averages; Fab mixed with purified virus at a molar ratio of 1.5 Fab to E protein; Fab added before exposure to 37 °C (DENV3-CH53489, ZIKV) or after the virus was incubated at 37 °C (DENV3-CH53489); binding seen as spiky surface and Fab density in 2D averages
Details: both partners purified

B1: Fab C10 (Fab, V domains shown)
VH: EVQLVESGAEVKKPGASVKVSCKASGYTFTSYAMHWVRQAPGQRLEWMGWINAGNGNTKYSQKFQDRVTITRDTSASTAYMELSSLRSEDTAIYYCARDKVDDYGDYWFPTLWYFDYWGQGTLVTVS
VL: ALTQPASVSGSPGQSITISCTGTSSDVGGFNYVSWFQQHPGKAPKLMLYDVTSRPSGVSSRFSGSKSGNTASLTISGLQAEDEADYYCSSHTSRGTWVFGGGTKLTVL
notes: Only the variable regions of the Fab were fitted into the maps; also called antibody C10; Fab fragment of antibody C10; source: monoclonal antibody C10 obtained from Gavin Screaton; Fab made from IgG with papain conjugated resins, purified (anion-exchange, gel filtration)
  binding result: binds

From article PMC7305169, “High flavivirus structural plasticity demonstrated by a non-spherical morphological variant” (Nature Communications, 2020)
